According to patent US20240026407A1, “MODIFICATION OF SAPONINS” (GLAXOSMITHKLINE BIOLOGICALS SA, priority 2020, published 2024):

What was measured:
Format in all cases: biochemical, Quillaja saponaria
[1] = Experiment 5-1: screening of additional glucosidases for deglycosylation with purified QS-18 (0.04 mg/ml) at pH 7.5 and 30 deg C; settings: pH 7.5, 30 degrees C, 18 hours, LCMS/MS
Procedure: The 94 additional genes, together with positive control (DNA encoding SEQ ID No. 262) and negative control, were transformed, expressed, lysed and reacted in the same manner as described above for Experiment 4-1, except the reaction was incubated at 30 degrees C. for 18 hours.
Samples were analysed by LCMS/MS according to the procedure in Experiment 4-1.

[2] = Experiment 5-2: screening of additional glucosidases for deglycosylation with QS-18 in crude bark extract (80%) at pH 6 and 35 deg C; settings: CBE 80%, pH 6, 35 deg C, 18 hours; UV HPLC
Outline: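 Deglycosylation of QS-18 was monitored by UV HPLC after MeCN/AcOH quench with hexanophenone. The reaction ran 18 hours at 35 deg C, shaking, combining clarified pH 6 lysate with crude bark extract neutralised to pH 6 by NaOH.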

[3] = Experiment 5-3: screening of additional glucosidases for deglycosylation with QS-18 in treated bark extract (80%) at pH 6 and 35 deg C; settings: TBE 80% (QS-21 approx. 4 g/L), pH 6, 35 deg C; UV HPLC
Procedure: Experiment 5-1 was repeated, replacing CBE with Treated Bark Extract (TBE) at pH 6. TBE was prepared from CBE by PVPP treatment and concentration, to provide TBE with a QS-21 concentration of approximately 4 g/L. TBE was adjusted to pH 6 by dropwise addition of 2M NaOH with stirring.

Molecule	Experiment 5-1 % conv [1] [%]	Experiment 5-2 % conv [2] [%]	Experiment 5-3 % conv [3] [%]
868 (protein, listed as Dictyoglomus thermophilum) MKLEYKIPYRIERGEQTNFSPLFIRIISQGGKQMEKDIKKLISQMTLEEKASLCSGLDFWHTKPIERLGIPSIRMSDGPHGLRKEETMFSKTVPATCFPTAVTIAASWDKLLAEKMGKAIGEECQAENVQILLGPGINMKRSPLCGRNFEYYSEDPILAGELAAHFIKGVQSQGVGTSLKHFAANNQEHRRLTVDAIIDERTLREIYLTAFEKAVKEAKPWTVMCSYNKVNGTYASENEFLLTKVLREEWGFEGFVVSDWGAVNDRVKGLAAGLDLQMPYDGGNGDKKIIEAVKSGKLPEEVLDRAVERILKIVFKAIENKKENATYDKEAHHKLAREIARECFVLLKNENNILPLKKEGKIALIGAFAKKPQIQGGGSAHVNPTRVDDAVEEIKKLVGDKVEILYADGYHIEKDDVDEKLIEEAKEIAKKADVVVIFAGLPERYESEGFDRPHMKMPESHNRLIEEVAKVNSNLVVVLSNGAPIEMPWVDKPKAILETYRGGQAWGGAVADVLFGVVNPSGKLPESFPKKLSDNPSYLFFPGEDDRSEYREGIFIGYRYYDKKEMEVLFPFGYGLSYTTFEYSDLKLDKKEMKDDEVLKVSVKVKNTGKVKGKEIVQLYVRDVKSNYIRPEKELKGFEKVELEPGEEKEVVFYLDKRAFAFYNIDIKDWYVEDGEFEILIGKSSRDIVLKDKVFVKSTTKIKRHYHINSTIGDIMSDPEASAKFKHILEQFASAFPAFSSEEAIMNFAEMMKYMPLRNLIHFGQGKFTEEMLENLLKEINS	89.9	<0.5	<0.5
826 (protein, Bifidobacterium saeculare) MSDYPSVNDLTLEEKAALTSGTNPWSLGNVAAKGLPNYTITDGPHGLRKAQNTESMDVEENVPATCFPPAAGMACSWNPELVERVGEAMGEECIQEQVAVILGPGVNIKRNPLGGRCFEYWSEDPYLAGHTAVGIVKGVQSKGVGTSLKHFAANNQETDRLRISATISPRAMREIYLPAFEYIVKTAQPWTVMCSYNKINGVFSSQNRWLLTDVLRGEWGFKGIVMSDWGAVSDRVAALNAGLNLEMPPSNTDDQIVAAAKDGRIPAAQLDEMAQGMIDLVAKARPAMSRDGYRYDVDAHNEVARQAAVESMVLLKNEDATLPVAKGAKIAVIGEFARTPRYQGAGSSLINPTKLTSFLDAIEERGVAADFAPGFTLDDAAQDPALTEQAVTAAQQADVVLLFLGLPAAYESEGFDRTTLDIPAKQVEVLDAVAAANPNVAVVLSNGSVVSMPWRGRAKAILETWLLGQAGGAALADVIFGDETPSGKLAQTIIDDVNDDPSAMNWPGEEGHVDYGEGVFVGYRYHDTFRKQVTYPFGYGLSYATFDVHDATVAKTGPRTAEVTVTVTNTSDVAGAETVQVYVAPPKAKVARPVHELKGFAKVALEPGESKNVTIALDDRAFAYWSERFDDWHVEGGTYTVEVGVSSRDIVSRIDVEIDDDGKIMNLDEWSTFGEWLDDPIGAPILQHVLDDMAKEAGHPVIPDSALMVMFLRSMPLRSLSVILGEAGEQVAANLTEAYRKATA	86.9	0.8	1.4
